Assay results reported in IntAct's records for PubMed 24726729.

B1: CCHC-type zinc finger nucleic acid binding protein (Homo sapiens), P62633 (parent)
chain: MSSNECFKCGRSGHWARECPTGGGRGRGMRSRGRGGFTSDRGFQFVSSSLPDICYRCGESGHLAKDCDLQEDACYNCGRGGHIAKDCKEPKREREQCCYNCGKPGHLARDCDHADEQKCYSCGEFGHIQKDCTKVKCYRCGETGHVAINCSKTSEVNCYRCGESGHLARECTIEATA

Variants of: B1
Settings: with anm1_rat Prmt1, Q63009
Sequence of anm1_rat Prmt1, Q63009 (Q63009 whole entry, looked up): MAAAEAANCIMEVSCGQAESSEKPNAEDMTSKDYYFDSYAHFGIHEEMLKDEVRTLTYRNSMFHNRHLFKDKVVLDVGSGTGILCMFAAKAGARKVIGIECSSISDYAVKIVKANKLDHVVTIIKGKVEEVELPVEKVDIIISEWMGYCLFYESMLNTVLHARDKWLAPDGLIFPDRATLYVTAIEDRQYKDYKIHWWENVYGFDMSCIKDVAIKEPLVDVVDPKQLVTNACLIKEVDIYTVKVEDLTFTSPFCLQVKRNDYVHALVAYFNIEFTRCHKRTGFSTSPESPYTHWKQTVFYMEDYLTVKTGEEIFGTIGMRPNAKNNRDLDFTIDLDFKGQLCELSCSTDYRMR

| effect of a mutation on the interaction | Variant |
| --- | --- |
| decreasing interaction | R25A;R27A |
